From patent US20040253577A1 (SCHERING, published 2004)

Biological target: the molecule itself
Assay: size exclusion chromatography (Superdex 75), self-association

B1: HCV NS3 helicase subdomain I (181-324,R257E) mutant (enzyme)
chain: SPVFTDNSSPPAVPQSFQVAHLHAPTGSGKSTKVPAAYAAQGYKVLVLNPSVAATLGFGAYMSKAHGVDPNIRTGVETITTGSPITYSTYGKFLADGGCSGGAYDIIICDECHSTDATSILGIGTVLDQAETAGARLVVLATAT
notes: also called subdomain I mutant; product of pNS3(181-324,R257E)
binding result: no binding (tested: 6 mg/ml)
